First the molecules themselves.
B1: NEUROD6 (parent)
chain: YHSPELTTPPGHGTLDNSKSMKPY

94 variants from the supplement of paper PMC10567573 can be followed below.
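Also: lentivirally expressed fusions sorted by FACS into six bins by GFP to DsRed ratio, PSI derived from sequencing read proportions per bin multiplied by bin number.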

Variants of B1 are the subject of this data set. Put plainly: protein stability index of a GFP-peptide fusion (GPS, HEK-293T) (PSI 1-6); higher = more stable. Particulars: c terminus: a fixed tail appended.
As for YHSPEATTPPGHGTLDNSKSMKPY, the protein stability index was 2.58.
With YHSPECTTPPGHGTLDNSKSMKPY, the protein stability index was 2.81.
Turning to RHSPELTTPPGHGTLDNSKSMKPY, the protein stability index is 4.99.
The same measure for LHSPELTTPPGHGTLDNSKSMKPY: 4.96; for FHSPELTTPPGHGTLDNSKSMKPY: 2.7; for GHSPELTTPPGHGTLDNSKSMKPY: 4.91.
Regarding IHSPELTTPPGHGTLDNSKSMKPY, the protein stability index is 4.77.
The same measure for QHSPELTTPPGHGTLDNSKSMKPY: 5.06; for MHSPELTTPPGHGTLDNSKSMKPY: 4.74.
On to DHSPELTTPPGHGTLDNSKSMKPY, for which the protein stability index is 5.05.
In the case of SHSPELTTPPGHGTLDNSKSMKPY, the protein stability index worked out at 4.93.
With VHSPELTTPPGHGTLDNSKSMKPY the figure was 4.69; with KHSPELTTPPGHGTLDNSKSMKPY, 4.93; with NHSPELTTPPGHGTLDNSKSMKPY, 4.94.
PHSPELTTPPGHGTLDNSKSMKPY: the protein stability index stood at 4.37.
Turning to EHSPELTTPPGHGTLDNSKSMKPY, the protein stability index was 5.28.
Regarding WHSPELTTPPGHGTLDNSKSMKPY, the protein stability index was determined as 4.53.
As for HHSPELTTPPGHGTLDNSKSMKPY, the protein stability index came out at 4.62.
AHSPELTTPPGHGTLDNSKSMKPY: the protein stability index is 5.09.
As for THSPELTTPPGHGTLDNSKSMKPY, the protein stability index worked out at 4.76.
The same measure for CHSPELTTPPGHGTLDNSKSMKPY: 4.53; for YPSPELTTPPGHGTLDNSKSMKPY: 4.29; for YDSPELTTPPGHGTLDNSKSMKPY: 4.75.
As to YGSPELTTPPGHGTLDNSKSMKPY, the protein stability index was determined as 4.41.
With YMSPELTTPPGHGTLDNSKSMKPY the figure was 4.18.
YISPELTTPPGHGTLDNSKSMKPY: the protein stability index was found to be 2.17.
As to YCSPELTTPPGHGTLDNSKSMKPY, the protein stability index stood at 3.23.
With YNSPELTTPPGHGTLDNSKSMKPY, the protein stability index is 4.71.
On to YSSPELTTPPGHGTLDNSKSMKPY, for which the protein stability index worked out at 4.53.
As to YESPELTTPPGHGTLDNSKSMKPY, the protein stability index is 5.07.
YYSPELTTPPGHGTLDNSKSMKPY: the protein stability index came out at 4.04.
With YLSPELTTPPGHGTLDNSKSMKPY the figure was 3.17; with YVSPELTTPPGHGTLDNSKSMKPY, 2.25.
With YKSPELTTPPGHGTLDNSKSMKPY the figure was 4.69; with YFSPELTTPPGHGTLDNSKSMKPY, 4.01.
Take YWSPELTTPPGHGTLDNSKSMKPY: the protein stability index worked out at 3.91.
Regarding YASPELTTPPGHGTLDNSKSMKPY, the protein stability index is 3.41.
As to YTSPELTTPPGHGTLDNSKSMKPY, the protein stability index was 3.61.
On to YRSPELTTPPGHGTLDNSKSMKPY, for which the protein stability index stood at 4.14.
Turning to YQSPELTTPPGHGTLDNSKSMKPY, the protein stability index was 3.15.
For YHSPQLTTPPGHGTLDNSKSMKPY, the protein stability index was 2.34.
YHSPALTTPPGHGTLDNSKSMKPY: the protein stability index turned out to be 2.71.
Take YHSPFLTTPPGHGTLDNSKSMKPY: the protein stability index was found to be 2.83.
With YHSPDLTTPPGHGTLDNSKSMKPY, the protein stability index came to 2.76.
The same measure for YHSPKLTTPPGHGTLDNSKSMKPY: 2.14; for YHSPILTTPPGHGTLDNSKSMKPY: 2.25; for YHSPNLTTPPGHGTLDNSKSMKPY: 2.43.
In the case of YHSPRLTTPPGHGTLDNSKSMKPY, the protein stability index came to 2.66.
As for YHSPWLTTPPGHGTLDNSKSMKPY, the protein stability index was found to be 2.56.
For YHSPSLTTPPGHGTLDNSKSMKPY, the protein stability index turned out to be 2.29.
Take YHSPGLTTPPGHGTLDNSKSMKPY: the protein stability index came to 2.14.
Take YHSPLLTTPPGHGTLDNSKSMKPY: the protein stability index came to 1.67.
Turning to YHSPVLTTPPGHGTLDNSKSMKPY, the protein stability index was determined as 2.14.
As to YHSPYLTTPPGHGTLDNSKSMKPY, the protein stability index worked out at 2.32.
On to YHSPMLTTPPGHGTLDNSKSMKPY, for which the protein stability index worked out at 1.98.
With YHSPCLTTPPGHGTLDNSKSMKPY, the protein stability index amounted to 1.75.
The same measure for YHSPTLTTPPGHGTLDNSKSMKPY: 2.28; for YHSFELTTPPGHGTLDNSKSMKPY: 2.21; for YHSLELTTPPGHGTLDNSKSMKPY: 1.95.
In the case of YHSGELTTPPGHGTLDNSKSMKPY, the protein stability index came to 2.02.
For the variant YHSRELTTPPGHGTLDNSKSMKPY, the protein stability index came out at 2.32.
As to YHSWELTTPPGHGTLDNSKSMKPY, the protein stability index is 2.82.
With YHSIELTTPPGHGTLDNSKSMKPY, the protein stability index is 2.23.
With YHSQELTTPPGHGTLDNSKSMKPY, the protein stability index turned out to be 2.46.
For the variant YHSCELTTPPGHGTLDNSKSMKPY, the protein stability index came to 2.38.
For YHSTELTTPPGHGTLDNSKSMKPY, the protein stability index worked out at 2.08.
With YHSVELTTPPGHGTLDNSKSMKPY the figure was 2.11; with YHSNELTTPPGHGTLDNSKSMKPY, 2.46; with YHSEELTTPPGHGTLDNSKSMKPY, 3.36.
With YHSYELTTPPGHGTLDNSKSMKPY, the protein stability index worked out at 1.68.
Consider YHSMELTTPPGHGTLDNSKSMKPY, for which the protein stability index amounted to 2.52.
With YHSKELTTPPGHGTLDNSKSMKPY the figure was 2.18.
For the variant YHSAELTTPPGHGTLDNSKSMKPY, the protein stability index came out at 2.6.
On to YHSHELTTPPGHGTLDNSKSMKPY, for which the protein stability index came to 2.07.
As to YHSDELTTPPGHGTLDNSKSMKPY, the protein stability index stood at 2.97.
Consider YHSSELTTPPGHGTLDNSKSMKPY, for which the protein stability index was determined as 2.44.
YHDPELTTPPGHGTLDNSKSMKPY: the protein stability index came to 2.82.
In the case of YHIPELTTPPGHGTLDNSKSMKPY, the protein stability index is 2.89.
With YHEPELTTPPGHGTLDNSKSMKPY, the protein stability index was 3.81.
With YHCPELTTPPGHGTLDNSKSMKPY the figure was 2.33; with YHRPELTTPPGHGTLDNSKSMKPY, 3.04.
In the case of YHNPELTTPPGHGTLDNSKSMKPY, the protein stability index was determined as 1.56.
Turning to YHYPELTTPPGHGTLDNSKSMKPY, the protein stability index worked out at 2.02.
In the case of YHVPELTTPPGHGTLDNSKSMKPY, the protein stability index came out at 3.42.
The same measure for YHLPELTTPPGHGTLDNSKSMKPY: 2.19.
In the case of YHTPELTTPPGHGTLDNSKSMKPY, the protein stability index turned out to be 2.77.
On to YHAPELTTPPGHGTLDNSKSMKPY, for which the protein stability index came out at 2.15.
With YHKPELTTPPGHGTLDNSKSMKPY, the protein stability index was 3.71.
With YHWPELTTPPGHGTLDNSKSMKPY, the protein stability index was found to be 2.52.
For the variant YHQPELTTPPGHGTLDNSKSMKPY, the protein stability index was found to be 3.12.
As for YHMPELTTPPGHGTLDNSKSMKPY, the protein stability index amounted to 1.94.
Take YHHPELTTPPGHGTLDNSKSMKPY: the protein stability index was 2.44.
Turning to YHGPELTTPPGHGTLDNSKSMKPY, the protein stability index worked out at 3.46.
With YHFPELTTPPGHGTLDNSKSMKPY the figure was 1.86.
